Reference: the supplement of paper PMC10126150
± gives the standard deviation of the averaged measurements.

System: ATP
Assay: switch fluorescence ratio, 500 uM ATP over buffer (Cy3 cluster intensity, sum of 5 cycles each) (fold (ratio)); higher = stronger signal-on switching upon ATP binding; sequences stand for … in TCGTCGGCAGCGTCAGATGTGTATAAGAGACAGTTTTTTTTTTTTTTTTTTTTTTTTT…TC
Settings: aptamer strand: ATP DNA aptamer (quencher-CACCTGGGGGAGTATTGCGGAGGAAGG + anchor), 100 nM annealed; ATP concentration: 500 uM
In short: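 Imaging in selection buffer was followed by imaging after 15 min with 500 uM ATP at 22 °C, for Cy3-labelled switching-strand clusters annealed to 100 nM quencher-labelled ATP aptamer on a modified Illumina MiSeq flow-cell. Five of these buffer/ATP cycles ran, separated by NaOH stripping and re-annealing. The fluorescence ratio per cluster is summed target-cycle over summed buffer-cycle Cy3 intensity, averaged per switch-domain sequence; clusters outside 100-1000 RFU were removed.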
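Further: ATP exposure 15 min at 22 °C before imaging.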

GGGATGGGTT
switch fluorescence ratio: 0.989 ± 0.025

ATCGGCTGTG
switch fluorescence ratio: 0.983 ± 0.022

GCGCGTTAGC
switch fluorescence ratio: 1.007 ± 0.0014

GTCTTGGGGG
switch fluorescence ratio: 1 ± 0.023

GGCATGCCAT
switch fluorescence ratio: 0.9908 ± 0.0077

TGGTTTGGGC
switch fluorescence ratio: 0.984 ± 0.034

CTTATTGTAG
switch fluorescence ratio: 0.964 ± 0.061

GTAGGGAGGG
switch fluorescence ratio: 0.987 ± 0.013

TAAGGGGCAA
switch fluorescence ratio: 1.01 ± 0.018

TGGTAGCTGT
switch fluorescence ratio: 1.01 ± 0.062

AATATTACAT
switch fluorescence ratio: 1.03 ± 0.034

TGGTTTATAT
switch fluorescence ratio: 1 ± 0.013

AGATATAGGG
switch fluorescence ratio: 0.937 ± 0.012

CAGAGGTGGC
switch fluorescence ratio: 1.07 ± 0.032

AAGACGGGGA
switch fluorescence ratio: 0.974 ± 0.023

TCTTACGGAC
switch fluorescence ratio: 1.31 ± 0.017

CAGGGGGCGA
switch fluorescence ratio: 1.06 ± 0.07

GCTCTGAGGG
switch fluorescence ratio: 1.056 ± 0.009

GGAGTCGACG
switch fluorescence ratio: 1.02 ± 0.012

CGGGCAACGT
switch fluorescence ratio: 1.02 ± 0.037

TCGGTCGTGC
switch fluorescence ratio: 1.03 ± 0.034

ATTTTATGTG
switch fluorescence ratio: 0.991 ± 0.018

CCAACGGGCA
switch fluorescence ratio: 1.08 ± 0.031

TATCGGGGGG
switch fluorescence ratio: 0.996 ± 0.043

ATCGAATAGG
switch fluorescence ratio: 0.9872 ± 0.0022

TCCGAGGCGG
switch fluorescence ratio: 2.131 ± 0.017

AAGTCGGTGT
switch fluorescence ratio: 0.988 ± 0.027

ACCGGCGTAG
switch fluorescence ratio: 1 ± 0.016

ATAGAGGCTA
switch fluorescence ratio: 0.992 ± 0.025

TTGGGAGTTG
switch fluorescence ratio: 0.984 ± 0.037

CATTTTTAAC
switch fluorescence ratio: 0.977 ± 0.014

ATTGAGTTGT
switch fluorescence ratio: 0.947 ± 0.066

AATTCGTGCA
switch fluorescence ratio: 1.03 ± 0.036

AAGAGGGCGG
switch fluorescence ratio: 0.991 ± 0.034

ATGAAAACGG
switch fluorescence ratio: 1 ± 0.051

TTGCCCCGGC
switch fluorescence ratio: 1.04 ± 0.016

AAAGGGAAGG
switch fluorescence ratio: 1.01 ± 0.018

TTAGATGGTT
switch fluorescence ratio: 0.984 ± 0.021

AGTTGCGATG
switch fluorescence ratio: 0.985 ± 0.014

CATTTTAGTG
switch fluorescence ratio: 1 ± 0.0021

ATGGGTGAAG
switch fluorescence ratio: 0.9848 ± 0.0096

CGGCGGGAGC
switch fluorescence ratio: 1.05 ± 0.038

CAGGAAAACG
switch fluorescence ratio: 1.03 ± 0.018

CGATACGTTG
switch fluorescence ratio: 0.99 ± 0.011

TAATTTTGAG
switch fluorescence ratio: 0.9957 ± 0.0029

TTTCGTCAGG
switch fluorescence ratio: 0.997 ± 0.038

TTGTTGTACT
switch fluorescence ratio: 1.02 ± 0.014

CGACATGAAT
switch fluorescence ratio: 1.037 ± 0.0082

AGGACGGGCA
switch fluorescence ratio: 1.05 ± 0.053

GGGGTATTTG
switch fluorescence ratio: 0.99 ± 0.012

GATACTGGGG
switch fluorescence ratio: 1.01 ± 0.028

AGTGGGTGGG
switch fluorescence ratio: 0.9921 ± 0.0049

TCCTTGTTTT
switch fluorescence ratio: 1 ± 0.028

CAATGTGTTT
switch fluorescence ratio: 1.01 ± 0.035

ATAATCTGTG
switch fluorescence ratio: 0.986 ± 0.0023

TAACTATTTT
switch fluorescence ratio: 1.01 ± 0.016

TTCTGGGTTT
switch fluorescence ratio: 1.01 ± 0.025

AACTTGTTAG
switch fluorescence ratio: 1.01 ± 0.016

GGAAGCTTCC
switch fluorescence ratio: 1.127 ± 0.0032

TATGATTGCG
switch fluorescence ratio: 1.01 ± 0.04

GTAATTGCGG
switch fluorescence ratio: 0.9765 ± 0.0056

CGTGGCGGTT
switch fluorescence ratio: 1.09 ± 0.13

ATGATTAGCT
switch fluorescence ratio: 1.0032 ± 0.00021

GCCCTGGGGC
switch fluorescence ratio: 1.013 ± 0.0075

CAGATCCTTA
switch fluorescence ratio: 1.051 ± 0.0082

CCAACAGGGA
switch fluorescence ratio: 1.112 ± 0.0014

GATGGGGGAT
switch fluorescence ratio: 1.01 ± 0.028

GAAGTCGAAT
switch fluorescence ratio: 1.014 ± 0.0091

GGGGAGAACT
switch fluorescence ratio: 0.992 ± 0.016

AGCTTTGTTT
switch fluorescence ratio: 1.01 ± 0.013

TAGTGATACG
switch fluorescence ratio: 0.986 ± 0.05

AAGTGGTGCA
switch fluorescence ratio: 0.974 ± 0.013

CAATGTGAGG
switch fluorescence ratio: 1.01 ± 0.0063

TGACTTGTGC
switch fluorescence ratio: 0.976 ± 0.037

GATTTAACGA
switch fluorescence ratio: 0.985 ± 0.014

TTCTTTAGAA
switch fluorescence ratio: 1.03 ± 0.046

GTCCTTGGTC
switch fluorescence ratio: 0.982 ± 0.019

TACGAGGGGG
switch fluorescence ratio: 1 ± 0.021

GTTGGGCCGG
switch fluorescence ratio: 0.987 ± 0.021

CCAAAAGGCA
switch fluorescence ratio: 1.0416 ± 0.00044

AGGAAGGGGT
switch fluorescence ratio: 0.979 ± 0.033

TCCGAATGCG
switch fluorescence ratio: 1.11 ± 0.0041

TGTTTTGGGC
switch fluorescence ratio: 0.992 ± 0.033

CGGGCGAGGA
switch fluorescence ratio: 0.989 ± 0.029

GTTCACGTAA
switch fluorescence ratio: 1.16 ± 0.15

AAAGGGAAAC
switch fluorescence ratio: 1.2 ± 0.28

TGGTTCTTTT
switch fluorescence ratio: 1.02 ± 0.056

TACGGTGAGG
switch fluorescence ratio: 1.02 ± 0.011

CGTTTAGGTA
switch fluorescence ratio: 0.982 ± 0.048

ACAATGTGTG
switch fluorescence ratio: 0.985 ± 0.038

CAGAATGGTG
switch fluorescence ratio: 0.978 ± 0.028

CGGAAGCGTG
switch fluorescence ratio: 0.984 ± 0.016

CGTATCGTGA
switch fluorescence ratio: 1.01 ± 0.041

TTCGTTTTGC
switch fluorescence ratio: 0.999 ± 0.035

ATGTCCACTT
switch fluorescence ratio: 1 ± 0.036

TTGTTTTGGG
switch fluorescence ratio: 1 ± 0.019

AGATTGGACG
switch fluorescence ratio: 1.02 ± 0.024

TATTAAGTTT
switch fluorescence ratio: 1.02 ± 0.039

TTAATCGCTC
switch fluorescence ratio: 1.02 ± 0.021

GCCTGGGTTC
switch fluorescence ratio: 0.985 ± 0.02

TAATGTGTTG
switch fluorescence ratio: 0.994 ± 0.014

GATTGGCCCG
switch fluorescence ratio: 1.11 ± 0.13

CGGTGCCAAG
switch fluorescence ratio: 0.988 ± 0.042

TGAGTCATAC
switch fluorescence ratio: 1.05 ± 0.033

TTTGGTTTCA
switch fluorescence ratio: 0.994 ± 0.013

GCCGCGGGGT
switch fluorescence ratio: 1 ± 0.0017

ATTGAGTCAC
switch fluorescence ratio: 0.991 ± 0.016

GATGTGGTAA
switch fluorescence ratio: 1.01 ± 0.012

GTCTGTTATT
switch fluorescence ratio: 1.01 ± 0.035

TTAACGGAGA
switch fluorescence ratio: 1.039 ± 0.0084

GGTGTGGGGC
switch fluorescence ratio: 1.01 ± 0.024

TCTAATCGGA
switch fluorescence ratio: 0.975 ± 0.04

CGAAAGCGGC
switch fluorescence ratio: 1.23 ± 0.014

ACGTGGGGTA
switch fluorescence ratio: 1.04 ± 0.022

AATTACGTGT
switch fluorescence ratio: 1.0006 ± 0.00059

GTATGGCAGG
switch fluorescence ratio: 1.01 ± 0.018

AGGGGTTTAT
switch fluorescence ratio: 0.988 ± 0.021

TGGCCTCATC
switch fluorescence ratio: 1.02 ± 0.058

TCATTAGAAA
switch fluorescence ratio: 1 ± 0.013

TCCTGTTTTC
switch fluorescence ratio: 0.987 ± 0.021

ATGAAGAGAT
switch fluorescence ratio: 0.9886 ± 0.0064

AGGGAGCAGA
switch fluorescence ratio: 0.9948 ± 0.0059

TTTTGAAAAA
switch fluorescence ratio: 1 ± 0.061

ATATAAGGGC
switch fluorescence ratio: 1 ± 0.074

CGGTTTGATT
switch fluorescence ratio: 1.04 ± 0.073

TCGGAAGGG
switch fluorescence ratio: 0.988 ± 0.037

TTTTTTTTGC
switch fluorescence ratio: 1.02 ± 0.092

TTAGCGTGCT
switch fluorescence ratio: 0.994 ± 0.0073

CGAATTGATA
switch fluorescence ratio: 1.01 ± 0.013

ACCGATGCAC
switch fluorescence ratio: 4.12 ± 1.2

CGGGGGCAGA
switch fluorescence ratio: 1 ± 0.023

AGTTTGTTGG
switch fluorescence ratio: 0.989 ± 0.035

GATTCAAAGG
switch fluorescence ratio: 0.9911 ± 0.004

TGCAAATTCG
switch fluorescence ratio: 0.999 ± 0.022

AGGGGACTTC
switch fluorescence ratio: 1.04 ± 0.015

CCATGATGGT
switch fluorescence ratio: 1.014 ± 0.0084

CGTGGTGCGA
switch fluorescence ratio: 1.02 ± 0.015

CATTCGAATA
switch fluorescence ratio: 1.08 ± 0.037

TTGAGTTGTT
switch fluorescence ratio: 1.02 ± 0.082

TCACGGTGTG
switch fluorescence ratio: 0.983 ± 0.02

CGGGTTTGTT
switch fluorescence ratio: 0.997 ± 0.02

TTGAAATCGA
switch fluorescence ratio: 1.01 ± 0.03

GAGAGGGAAT
switch fluorescence ratio: 1.021 ± 0.0091

ACGATGTAAA
switch fluorescence ratio: 0.9574 ± 0.0042

TTATGAGCGT
switch fluorescence ratio: 1 ± 0.014

GGCACATAAT
switch fluorescence ratio: 1.08 ± 0.087

TTTTCGGTGC
switch fluorescence ratio: 1.06 ± 0.1

AGGTGAAGGT
switch fluorescence ratio: 1.01 ± 0.0035

AAGCAGACGG
switch fluorescence ratio: 1.05 ± 0.036

AGGGAGAAAA
switch fluorescence ratio: 0.974 ± 0.039

ATTGTGGGAA
switch fluorescence ratio: 0.9843 ± 0.0028

GGGCATGTAC
switch fluorescence ratio: 1.57 ± 0.15

GCATCAGGAG
switch fluorescence ratio: 1.05 ± 0.021

TCATATGTTG
switch fluorescence ratio: 1.018 ± 0.0036

CGTGGGGGGC
switch fluorescence ratio: 1.01 ± 0.02

AAGATGGGTG
switch fluorescence ratio: 0.9968 ± 0.005

GTTACATAGC
switch fluorescence ratio: 1.08 ± 0.014

AAAGAGGCTT
switch fluorescence ratio: 0.983 ± 0.039

TAATGGTTCG
switch fluorescence ratio: 0.9962 ± 0.0025

AGGGCCGGTA
switch fluorescence ratio: 1.03 ± 0.026

GCGGGCAAGT
switch fluorescence ratio: 0.9903 ± 0.00062

AATTTAGGGT
switch fluorescence ratio: 1.01 ± 0.028

ATGATAAATT
switch fluorescence ratio: 0.963 ± 0.04

TTGGGGCCCG
switch fluorescence ratio: 1.01 ± 0.082

TCGGGTAAAC
switch fluorescence ratio: 1.03 ± 0.042

GAGGTAGGCC
switch fluorescence ratio: 1.048 ± 0.0066

TAACGGAGT
switch fluorescence ratio: 1.01 ± 0.015

TTTGGTTGG
switch fluorescence ratio: 1.0076 ± 0.00057

GGACGGAGGT
switch fluorescence ratio: 0.959 ± 0.038

GGTTGTGTTT
switch fluorescence ratio: 0.991 ± 0.003

ATGCTTATAC
switch fluorescence ratio: 2.31 ± 0.36

TTAATATAAG
switch fluorescence ratio: 1.02 ± 0.021

GGCCGTTCGT
switch fluorescence ratio: 1.008 ± 0.0091

TGTGGGATTG
switch fluorescence ratio: 0.993 ± 0.015

CAGGTCAGGG
switch fluorescence ratio: 0.998 ± 0.014

GGGCAAGGAG
switch fluorescence ratio: 1.01 ± 0.02

GACTGCGGAA
switch fluorescence ratio: 2.04 ± 0.038

ATTTTTAGGG
switch fluorescence ratio: 1.02 ± 0.033

TGAGGGATGC
switch fluorescence ratio: 0.968 ± 0.029

TGCTTTTACG
switch fluorescence ratio: 1.04 ± 0.064

AAAGTGCTCT
switch fluorescence ratio: 0.981 ± 0.038

ACGACTTCTT
switch fluorescence ratio: 0.989 ± 0.019

CGTTTACTCT
switch fluorescence ratio: 1.055 ± 0.0043

TCGGGGCGGG
switch fluorescence ratio: 1.01 ± 0.056

TTTCTTTCAA
switch fluorescence ratio: 1.01 ± 0.021

CGACGTATTG
switch fluorescence ratio: 1.02 ± 0.03

ACCGAATAAT
switch fluorescence ratio: 1.03 ± 0.019

TTAGACGGGT
switch fluorescence ratio: 0.982 ± 0.0043

AGCTTTTGAA
switch fluorescence ratio: 1.006 ± 0.0026

CATGGGCTGG
switch fluorescence ratio: 0.9965 ± 0.001

TTTACCGGAG
switch fluorescence ratio: 1.15 ± 0.089

CGGGCTTTTT
switch fluorescence ratio: 1.016 ± 0.0065

TAAGTCCCCA
switch fluorescence ratio: 1.01 ± 0.052

GCTGTAAGAA
switch fluorescence ratio: 1.01 ± 0.037

TGGGATGCTT
switch fluorescence ratio: 0.981 ± 0.011

TTGAGGACGG
switch fluorescence ratio: 1.03 ± 0.016

ATTTTGCCGG
switch fluorescence ratio: 0.965 ± 0.013

GAGGTTGTTA
switch fluorescence ratio: 0.993 ± 0.032

TCAGTAATCT
switch fluorescence ratio: 1.01 ± 0.058

GCTAGGACGT
switch fluorescence ratio: 0.997 ± 0.03
